# Data as given in patent US20220119522A1 (DENALI THERAPEUTICS, published 2022).
# Numbering of substitutions follows the chain as printed. No end group written: not given here.
# T1: His-tagged human TREM2 ECD (human, UniProt Q9NZC2 19-172)
# T1 construct: Biacore and HDX say only recombinant human TREM2 (ECD); also called recombinant human TREM2; hTREM2
# T1 sequence: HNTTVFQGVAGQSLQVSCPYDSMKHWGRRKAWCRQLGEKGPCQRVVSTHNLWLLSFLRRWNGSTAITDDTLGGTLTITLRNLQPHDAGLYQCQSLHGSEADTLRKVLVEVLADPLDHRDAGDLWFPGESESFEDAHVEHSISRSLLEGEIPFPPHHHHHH
# T2: human TREM2 on the cell surface (human, UniProt Q9NZC2 19-230)
# T2 sequence: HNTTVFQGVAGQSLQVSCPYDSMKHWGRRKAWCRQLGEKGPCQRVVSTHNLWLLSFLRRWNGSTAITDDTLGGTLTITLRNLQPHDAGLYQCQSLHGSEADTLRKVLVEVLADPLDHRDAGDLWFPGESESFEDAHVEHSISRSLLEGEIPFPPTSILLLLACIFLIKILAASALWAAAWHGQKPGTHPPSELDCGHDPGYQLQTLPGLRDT
# T3: human soluble TREM2 (sTREM2) (human, UniProt Q9NZC2 19-157, limits assumed)
# T3 construct: Native shed sTREM2; also called sTREM2 in Human CSF; sTREM2 in huTrem2 KI mouse plasma
# T3 sequence: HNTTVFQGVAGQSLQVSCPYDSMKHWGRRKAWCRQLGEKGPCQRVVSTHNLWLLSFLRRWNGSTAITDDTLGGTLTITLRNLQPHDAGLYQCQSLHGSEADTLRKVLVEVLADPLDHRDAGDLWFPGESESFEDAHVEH
# T4: human TREM2 full length stalk region peptide (aa 129-172) (human, biotinylated (site not stated))
# T4 construct: also called Human TREM2 peptide (aa 129-172); full-length TREM2 stalk peptide
# T4 peptide: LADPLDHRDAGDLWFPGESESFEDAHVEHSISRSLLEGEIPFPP
# T5: human TREM2 truncated stalk peptide (aa 149-163) (human, also: biotinylated (site not given here))
# T5 construct: also called Human TREM2 peptide (aa 149-163); truncated stalk peptide containing the ADAM10/17 cleavage site
# T5 peptide: SFEDAHVEHSISRSL
# T6: mouse TREM2 full length stalk region peptide (aa 131-169) (mouse, UniProt Q99NH8 131-169, biotinylated (site not stated))
# T6 peptide (looked up): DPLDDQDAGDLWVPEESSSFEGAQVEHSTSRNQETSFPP
# B1: CL0020123 (antibody, V domains shown)
# VH: EVQLQQSGAELVRSGASVKLSCTASGFSIEDFYIHWVKQRPEQGLEWIGWIDPENGDSKYAPKFQGKATMTADTSSNTAYLHLSSLTSEDTAVYYCHADHGNYGSTMDYWGQGTSVTVSS
# VL: DIQMNQSPSSLSASLGDTVTITCHASQHINVWLSWYQQKPGDHPKLLIYKASNLHTGVPSRFSGSGSGTGFTLTISSLQPEDIATYYCQQGQTYPRTFGGGTKLEIK
# notes: also called Clone CL0020123
# B2: CL0020123-7 (antibody, V domains shown)
# VH: QVQLVQSGAEVKKPGASVKVSCKASGFSIEDFYIHWVRQAPGQGLEWMGWIDPENGESKYAPKFQGRVTITADTSTSTAYMELSSLRSEDTAVYYCHADHGNYGSTMDYWGQGTLVTVSS
# VL: B1 VL with N5T, L15V, T18R, D42K, H43A, G70D, I83F, G100Q, L104V
# notes: Humanized variant of CL0020123 (hVH NGES/1 m, Vk graft); also called Clone CL0020123-7
# B3: CL0020123-5 (antibody, V domains shown)
# VH: B2 VH with N55Q, V68A
# VL: B1 VL with N5T, L15V, T18R, D42K, H43A, G70D, I83F, G100Q, L104V
# notes: Humanized variant of CL0020123 (hVH QGES/2 m, Vk graft); also called Clone CL0020123-5
# B4: CL0020188-4 (antibody, V domains shown)
# VH: EVQLVESGGGLVQPGGSLRLSCAGSGFTFTDFYMSWVRQAPGKGPEWLSVIRNKANGYTAGYNPSVKGRFTISRDNSKNTLYLQMNSLRAEDTAVYYCARLTYGFDYWGQGTLVTVSS
# VL: DIVMTQTPLSLPVTPGEPASISCQSSKSLLHSTGKTYLNWYLQKPGQSPQLLIYWMSTRASGVPDRFSGSGSGTDFTLKISRVEAEDVGVYYCQQFLEYPFTFGQGTKVEIK
# notes: Humanized variant of CL0020188 (hVH NG/3 m, hVL TG/graft); also called Clone CL0020188-4
# B5: CL0020188-7 (antibody, V domains shown)
# VH: B4 VH with G24A, P45L, L48V, G57A
# VL: B4 VL
# notes: Humanized variant of CL0020188 (hVH NA/graft, hVL TG/graft); also called Clone CL0020188-7
# B6: Reference antibody #1 (antibody, V domains shown)
# VH: EVQLVQSGAEVKKPGESLKISCKGSGHSFTNYWIAWVRQMPGKGLEWMGIIYPGDSDTRYSPSFQGQVTISADKSISTAYLQWSSLKASDTAVYFCARQRTFYYDSSGYFDYWGQGTLVTVSS
# VL: DIQMTQSPSSVSASVGDRVTITCRASQGISNWLAWYQQKPGKAPKLLIYAASSLQVGVPLRFSGSGSGTDFTLTISSLQPEDFATYYCQQADSFPRNFGQGTKLEIK
# B7: Reference antibody #2 (antibody, V domains shown)
# VH: B6 VH with H27Y, N31S, V93M, G108D
# VL: B6 VL with N31S, V56N, L60S, Y87F, N97T
# B8: Reference antibody #3 (antibody, V domains shown)
# VH: QVQLVQSGAEVKKPGASVKVSCKASGYAFSSQWMNWVRQAPGQRLEWIGRIYPGGGDTNYAGKFQGRVTITADTSASTAYMELSSLRSEDTAVYYCARLLRNQPGESYAMDYWGQGTLVTVSS
# VL: DVVMTQSPDSLAVSLGERATINCRSSQSLVHSNRYTYLHWYQQKPGQSPKLLIYKVSNRFSGVPDRFSGSGSGTDFTLKISRVEAEDVGVYYCSQSTRVPYTFGQGTKLEIK
# Biological target: T1, His-tagged human TREM2 ECD
# Experiment: SPR (Biacore)
# Method: (§1) Surface plasmon resonance (Biacore™ 8K instrument) was used to measure anti-TREM2 antibody affinities for human and cynomolgus TREM2 ECD. Anti-TREM2 antibodies were captured using Human Fab Capture Kit (GE Healthcare Life Sciences, Catalog No. 28958325) on a Biacore Series S CM5 sensor chip (GE Healthcare Life Sciences, Catalog No. 29149604). Serial 3-fold dilutions of recombinant human or cynomolgus TREM2 were injected at a flow rate of 30 μL/min. Antibody binding was monitored for 300 seconds, followed by monitoring of antibody dissociation for 600+seconds in HBS-EP+ running buffer (GE Healthcare Life Sciences, Catalog No. BR100669). The binding response was corrected by subtracting the RU value from a blank flow cell. A 1:1 Languir model of simultaneous fitting of kₒₙ and koff was used for kinetics analysis.
# (§2) Sequence optimization was conducted by searching within CDR sequences for residues that are susceptible to chemical modification (e.g., asparagine deamidation motifs (NG), aspartic acid isomerization motifs (DS), and potential oxidation residues (tryptophan (W) and methionine (M)) and making amino acid substitutions with conservative and germline residues to remove such sequence liabilities. Humanized and sequence-optimized variants of anti-TREM2 antibodies were then analyzed for binding kinetics using Biacore and dose-titrated cell binding to HEK293-H6 cells (see, Example 1 for representative protocols).
row,Kd [nM],Binder
1,0.1,B1
2,0.15,B2
3,0.44,B3
4,4.8,B4
5,10,B5

# Biological target: T1, His-tagged human TREM2 ECD
# Experiment: SPR (Biacore)
# Remark: another data set of the same source
# Method: as §1, with “analysis. […]” for “analysis.”
row,Kd [nM],Binder
1,0.08,B2
2,0.63,B3
3,5.9,B6
4,4.3,B7
5,1.4,B4
6,3.3,B5
7,8.7,B8

# Biological target: T7, recombinant cynomolgus TREM2 ECD (cynomolgus)
# T7 construct: extracellular domain; also called cyno TREM2
# Experiment: SPR (Biacore)
# Method: as §1, with “analysis. […]” for “analysis.”
row,Kd [nM],Binder
1,9.4,B2
2,9.3,B3
3,14,B6
4,9.2,B7
5,1.5,B4
6,2.8,B5
7,9.2,B8

# Biological target: T2, human TREM2 on the cell surface
# Experiment: cell-based or functional assay
pSyk activation (human macrophages) EC50 (nM),Binder,"Survival EC50 (nM), plate coated mAb, human macrophages [nM]"
7,B1,44.7

# Biological target: T2, human TREM2 on the cell surface
# Experiment: cell binding, human macrophages, dose titration
row,EC50 [nM],Binder
1,0.3,B1

# Biological target: T2, human TREM2 on the cell surface
# Experiment: flow cytometry, dose-titrated binding to HEK293-H6 cells
# Method: After incubation, the cells were centrifuged and washed in FACS buffer (PBS+0.5% BSA) twice. Mixed cells were resuspended in FACS buffer with human Trustain FcX solution (Biolegend, Catalog No. 422302) at a density of 10⁶/mL per cell line. The mixed cell lines were seeded at 200,000 cells per well in a 96-well round-bottom plate and incubated for 20 minutes at room temperature. After incubation, the cells were centrifuged and incubated with anti-TREM2 antibodies of about 0-200 nM dose titration for 45 minutes on ice. After incubation, the cells were centrifuged and washed with FACS buffer three times. […] After incubation, the cells were washed with FACS buffer three times, resuspended in 100 μL of FACS buffer, and analyzed by flow cytometry (BD FACSCanto II, San Jose, Calif.), for which 30,000 events were obtained for each sample. Mean fluorescence intensity per cells were calculated by FlowJo software and used for generating dose response binding curve.
# as §2
row,EC50 [nM],Binder
1,0.26,B1
2,0.19,B2
3,0.37,B3
4,0.44,B4
5,0.68,B5

# Biological target: T3, human soluble TREM2 (sTREM2)
# Experiment: MSD assay: sTREM2 captured from healthy human CSF, sulfo-tagged antibody titrated
# Method: (§3) The affinity of anti-TREM2 antibodies to human TREM2 and cynomolgus TREM2 were measured by Biacore (described in Example 1). The potency of anti-TREM2 antibodies were measured in healthy human volunteer CSF samples (Innovative Research) and healthy cynomolgus monkey CSF samples (Worldwide Primates), by MSD assay. The potency of each antibody was determined by its EC50. Briefly, MSD GOLD 96-well small spot streptavidin plates (MSD, Cat. No. L45SA) coated with capture antibody (biotinylated goat anti-human TREM2, R&D Systems, Cat. No. BAF1828) was incubated with biofluid samples diluted 1:3 in Assay Buffer (25% (v/v) MSD Blocker A (MSD, Cat. No. R93BA-A), 75% (v/v) TBST) for one hour at room temperature. After rinsing the wells with TBST, sulfo-tagged anti-TREM2 antibody was added in a serial dilution (4×dilution over 11 points) to the wells of the plate and incubated for one hour at room temperature. The wells were washed with TBST, and MSD Read Buffer (MSD, Cat. No. R92TC-3) was added to the wells. Signal from the samples were measured using an MSD Meso Sector 5600 device. EC50 values for each antibody was determined by four-parameter variable slope non-linear regression. The variable regions of reference antibody #1 are represented by SEQ ID NOS:344 and 345. The variable regions of reference antibody #2 are represented by SEQ ID NOS:346 and 347. The variable regions of reference antibody #3 are represented by SEQ ID NOS:348 and 349.
row,EC50 [nM],Binder
1,0.54,B2
2,1,B3
3,32.6,B6
4,7.4,B7
5,0.29,B4
6,0.75,B5
7,7.25,B8

# Biological target: T8, cynomolgus soluble TREM2 (sTREM2) (cynomolgus)
# T8 construct: also called sTREM2 in Cyno CSF
# Experiment: MSD assay: sTREM2 captured from healthy cynomolgus CSF, sulfo-tagged antibody titrated
# Method: as §3
row,EC50 [nM],Binder
1,16.9,B2
2,49.4,B3
3,81.6,B6
4,6.5,B7
5,0.28,B4
6,0.72,B5
7,33.7,B8

# Biological target: T4, human TREM2 full length stalk region …
# Experiment: ELISA on biotinylated peptide captured by streptavidin; A450 normalised to isotype control
# Procedure, shortened: (§4)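 Sandwich ELISA: biotinylated TREM2 stalk peptides captured on streptavidin-coated plates, antibodies added for 1 h in 1% BSA/PBS, binding detected with anti-human kappa-HRP and TMB at A450. Values expressed as fold over isotype-control background.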
row,fold over background (A450) [fold],Binder
1,1.2,B1

# Biological target: T5, human TREM2 truncated stalk peptide (aa …)
# Experiment: as above
# Procedure, shortened: as §4
row,fold over background (A450) [fold],Binder
1,1.2,B1

# Biological target: T6, mouse TREM2 full length stalk region …
# Experiment: as above
# Procedure, shortened: as §4
row,fold over background (A450) [fold],Binder
1,1,B1

# Biological target: T1, His-tagged human TREM2 ECD
# Experiment: SPR (Biacore), antibody captured via anti-human Fab, recombinant TREM2 ECD injected, 1:1 fit
# Procedure, shortened: (§5)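 Antibodies captured on a CM5 chip via anti-human Fab, then 3-fold serial dilutions of recombinant human or cynomolgus TREM2 ECD injected at 30 μL/min in HBS-EP+. Association 300 s, dissociation 600+ s, blank-cell subtracted; kon and koff from simultaneous 1:1 Langmuir fit.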
row,Kd [nM],Binder
1,0.068,B1

# Biological target: T7, recombinant cynomolgus TREM2 ECD
# Experiment: as above
# Procedure, shortened: as §5
row,Kd [nM],Binder
1,5.7,B1
